Test results as given in doi:10.1101/304022 (bioRxiv, 2018).
Numbering of substitutions follows the chain as printed.

B1: STIM1 23-213 (luminal domain of human stromal interaction molecule-1), wild type, unmodified (1 mM DTT) (domain or fragment, UniProt Q13586-1 23-213, looked up)
chain: LSHSHSEKATGTSSGANSEESTAAEFCRIDKPLCHSEDEKLSFEAVRNIHKLMDDDANGDVDVEESDEFLREDLNYHDPTVKHSTFHGEDKLISVEDLWKAWKSSEVYNWTVDEVVQWLITYVELPQYEETFRKLQLSGHAMPRLAVTNTTMTGTVLKMTDRSHRQKLQLKALDTVLFGPPLLTRHNHLKD
B2: Cys49Ser/Cys56Ser double mutant STIM1 23-213 (domain or fragment, human, UniProt Q13586-1 23-213, looked up)
chain: B1 chain with C27S, C34S

Biological target: the molecule itself
Experiment: dynamic light scattering

Protein | binding result
B1 | binds
B2 | binds
